# Patent US20190160148A1, “COMBINATION OF PEMBROLIZUMAB AND ABEMACICLIB FOR THE TREATMENT OF CANCER” (Eli Lilly and Company, priority 2016, published 2019)
# B1: Anti-PD-L1 antibody: anti-murine PD-L1 clone 178G7, HC SEQ ID NO: 11, LC SEQ ID NO: 12; surrogate that blocks PD-1/PD-L1 interaction (antibody)
# heavy: QVQLQQSGADLAKPGSSVKISCKASGYNFNSYYINWIKQTTGQGLEYIGYINTVSGTTKYSEKFKGKATLTVDKSSSTAFMQLSSLTPDDSAVYYCARGTIVLDDYWGQGVKVTVSSAETTAPSVYPLAPGTALKSNSMVTLGCLVKGYFPEPVTVTWNSGALSSGVHTFPAVLQSGLYTLTSSVTVPSSTWPSQTVTCNVAHPASSTKVDKKIVPRNCGGDCKPCICTGSEVSSVFIFPSKPKDVLTITLTPKVTCVVVDISQDDPEVHFSWFVDDVEVHTAQTRPPEEQFNSTFRSVSELPILHQDWLNGRTFRCKVTSAAFPSPIEKTISKPEGRTQVPHVYTMSPTKEEMTQNEVSITCMVKGFYPPDIYVEWQMNGQPQENYKNTPPTMDTDGSYFLYSKLNVKKEKWQQGNTFTCSVLHEGLHNHHTEKSLSHSPGK
# light: DIVMTQTPSSQAVSAGEKVTMSCKSSQSLLYNEKKKNYLAWYQQKPGQSPKLLIYWASTRESGVPDRFLGSGSGTDFTLTINSVQAEDLAVYYCQQSYDFPRTFGGGTKLELKRADAAPTVSIFPPSTEQLATGGASVVCLMNNFYPRDISVKWKIDGTERRDGVLDSVTDQDSKDSTYSMSSTLSLTKADYESHNLYTCEVVHKTSSSPVVKSFNRNEC
# What was measured:
# [1] = tested on: CT26 syngeneic tumors; assay: CT26 syngeneic tumor growth, concurrent dosing; type: in vivo, Balb/C mice; conditions: day 24; abemaciclib 50 mg/kg for 21 days; 178G7 500 μg/dose 1 time per week, 3 doses; versus vehicle
# Description: CT26 is also a well-known model for immunotherapy. Studies have shown it to be sensitive to inhibitors of a co-inhibitory immune checkpoint including, CTLA-4, PD-1, PD-L1 blockade. Established sensitivity of CT26, and well known range of therapeutic efficacy of immunotherapeutic intervention make it an appropriate model for screening the activity of checkpoint immunotherapies (Grosso and Jure-Kunkel, Cancer Immunity Vol. 13, p. 5, January 2013) (Duraiswamy et al, Cancer Research, Jun. 15, 2013 73; 3591).
# CT26 is a murine model, and accordingly, antibodies used in the CT26 model must bind the mouse target protein. […]
# Relative changes in tumor volume compared to control are analyzed at day 24, at the point where the most animals remained in all groups for proper statistical comparison. Relative changes in tumor volume (% ΔT/C) are calculated using the formula % ΔT/C=100×ΔT/ΔC, whereby T=mean tumor volume of the compound treated group, ΔT=mean tumor volume of the compound treated group minus the mean tumor volume on the baseline day, C=mean tumor volume of the control (vehicle) group, and ΔC=mean tumor volume of the control group minus the mean tumor volume on the baseline day. […]
# [2] = target: PD-L1/PD-1 interaction (Mus musculus, UniProt Q9EP73); assay: Blockade of PD-1 binding to PD-L1; conditions: anti-murine PD-L1 clone
# Chain of PD-L1/PD-1 interaction (Q9EP73 19-290): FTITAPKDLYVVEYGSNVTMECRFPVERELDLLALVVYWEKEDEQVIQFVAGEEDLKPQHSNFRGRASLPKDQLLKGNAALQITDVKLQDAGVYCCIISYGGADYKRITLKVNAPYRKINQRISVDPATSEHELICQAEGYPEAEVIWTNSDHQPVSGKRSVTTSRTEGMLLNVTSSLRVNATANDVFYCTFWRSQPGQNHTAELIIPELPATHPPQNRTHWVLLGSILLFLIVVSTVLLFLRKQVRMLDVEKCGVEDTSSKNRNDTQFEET
# Description: CT26 is a murine model, and accordingly, antibodies used in the CT26 model must bind the mouse target protein. To model co-inhibitory immune checkpoint therapy, in particular blockade of PD-L1/PD-1 mediated inhibition, anti-murine PD-L1 clone, 178G7 (Known herein in the examples as: anti-PD-L1 antibody or anti-PD-L1 therapy or anti-PD-L1), is produced. The HC of 178G7 is SEQ ID NO: 11, and the LC of 178G7 is SEQ ID NO: 12. […] In particular, 178G7 is used as a a surrogate agents that prevent PD-1 mediated inhibition by PD-L1. as both 178G7 and pembrolizumab block the interaction of PD-1 and PD-L1. 178G7 competes with previously identified surrogate antibody 10F.9G2 known to block PD-L1/PD-1 interaction and is a known surrogate for anti-human antibodies in the clinic (Eppihimer et al. Microcirculation 2002:9(2):133).
Molecule,%T/C (relative change in tumor volume compared to control) [1],blocking of PD-1 binding to PD-L1 [2]
"CCN1CCN(Cc2ccc(Nc3ncc(F)c(-c4cc(F)c5nc(C)n(C(C)C)c5c4)n3)nc2)CC1 [abemaciclib, [5-(4-ethyl-piperazin-1-ylmethyl)-pyridin-2-yl]-[5-fluoro-4-(7-fluoro-3-isopropyl-2-methyl-3H-benzoimidazol-5-yl)-pyrimidin-2-yl]-amine]",22.3%,
B1,56.1%,blocks PD-1 binding to PD-L1
